Four molecules from patent US20050186203A1 (published 2005) can be followed below.

The target in experiment [1] is T1, purified full-length human IGF-I receptor (affinity purified); directly coated or biotinylated and captured on … (human, UniProt P08069 31-1367, biotinylated with PEO-maleimide-biotin reagent in the captured format).
T1 construct: mature; also called purified human IGF-I receptor; biotinylated human IGF-I receptor
As to the kind of experiment: ELISA binding competition with murine EM164 on full-length IGF-I receptor. As for the experimental part:
(§1) After equilibration, the bound humanized antibody was detected using a goat-anti-human-Fab′₂-antibody-horseradish peroxidase conjugate. Plots of ([bound murine Ab]/[bound humanized Ab]) vs ([murine Ab]/[humanized Ab]), which theoretically yield a straight line with slope=(K_{d humanized Ab}/K_{d murine Ab}), were used to determine the relative affinities of the humanized and murine antibodies.
(§2) An Immulon-2HB ELISA plate was coated with 100 μL of 5 μg/mL streptavidin per well in carbonate buffer at ambient temperature for 7 h. […] The wells were then washed with TBS-T buffer and incubated with goat-anti-human-Fab′₂-antibody-horseradish peroxidase conjugate for 1 h (100 μL; 1 μg/mL in blocking buffer), followed by washes and detection using ABTS/H₂O₂ substrate at 405 nm.

Experiment [2] deals with T1, purified full-length human IGF-I …. As to the kind of experiment: ELISA binding competition with murine EM164 on captured biotinylated IGF-I receptor. Here is the method:
as §1, §2

Experiment [3] has as its target IGF-I receptor of 3T3 cells (mouse) (mouse, UniProt Q60751 31-1373). Briefly: immunoprecipitation from cell lysate, Western blot. In general terms: Immunoblotting shows a protein as a band on a membrane.
Experiment [4] deals with T2, human insulin receptor, overexpressed on 3T3-like cells of IGF-I receptor deficient mice (human, UniProt P06213 28-1382).
T2 construct: whole, on cells; also called insulin receptor overexpressing cells
Briefly: FACS on cells overexpressing human insulin receptor. As for the experimental part:
The cells were pelleted by centrifugation and washed with cold FACS buffer by gentle flicking, followed by incubation with goat-anti-mouse-IgG-antibody-FITC conjugate (100 μL; 10 μg/mL in FACS buffer) on ice for 1 h. The cells were pelleted, washed, and resuspended in 120 μL of 1% formaldehyde solution in PBS. The plate was analyzed using a FACSCalibur reader (BD Biosciences).

Sequence of IGF-I receptor of 3T3 cells (mouse) (Q60751 31-1373 limits assumed): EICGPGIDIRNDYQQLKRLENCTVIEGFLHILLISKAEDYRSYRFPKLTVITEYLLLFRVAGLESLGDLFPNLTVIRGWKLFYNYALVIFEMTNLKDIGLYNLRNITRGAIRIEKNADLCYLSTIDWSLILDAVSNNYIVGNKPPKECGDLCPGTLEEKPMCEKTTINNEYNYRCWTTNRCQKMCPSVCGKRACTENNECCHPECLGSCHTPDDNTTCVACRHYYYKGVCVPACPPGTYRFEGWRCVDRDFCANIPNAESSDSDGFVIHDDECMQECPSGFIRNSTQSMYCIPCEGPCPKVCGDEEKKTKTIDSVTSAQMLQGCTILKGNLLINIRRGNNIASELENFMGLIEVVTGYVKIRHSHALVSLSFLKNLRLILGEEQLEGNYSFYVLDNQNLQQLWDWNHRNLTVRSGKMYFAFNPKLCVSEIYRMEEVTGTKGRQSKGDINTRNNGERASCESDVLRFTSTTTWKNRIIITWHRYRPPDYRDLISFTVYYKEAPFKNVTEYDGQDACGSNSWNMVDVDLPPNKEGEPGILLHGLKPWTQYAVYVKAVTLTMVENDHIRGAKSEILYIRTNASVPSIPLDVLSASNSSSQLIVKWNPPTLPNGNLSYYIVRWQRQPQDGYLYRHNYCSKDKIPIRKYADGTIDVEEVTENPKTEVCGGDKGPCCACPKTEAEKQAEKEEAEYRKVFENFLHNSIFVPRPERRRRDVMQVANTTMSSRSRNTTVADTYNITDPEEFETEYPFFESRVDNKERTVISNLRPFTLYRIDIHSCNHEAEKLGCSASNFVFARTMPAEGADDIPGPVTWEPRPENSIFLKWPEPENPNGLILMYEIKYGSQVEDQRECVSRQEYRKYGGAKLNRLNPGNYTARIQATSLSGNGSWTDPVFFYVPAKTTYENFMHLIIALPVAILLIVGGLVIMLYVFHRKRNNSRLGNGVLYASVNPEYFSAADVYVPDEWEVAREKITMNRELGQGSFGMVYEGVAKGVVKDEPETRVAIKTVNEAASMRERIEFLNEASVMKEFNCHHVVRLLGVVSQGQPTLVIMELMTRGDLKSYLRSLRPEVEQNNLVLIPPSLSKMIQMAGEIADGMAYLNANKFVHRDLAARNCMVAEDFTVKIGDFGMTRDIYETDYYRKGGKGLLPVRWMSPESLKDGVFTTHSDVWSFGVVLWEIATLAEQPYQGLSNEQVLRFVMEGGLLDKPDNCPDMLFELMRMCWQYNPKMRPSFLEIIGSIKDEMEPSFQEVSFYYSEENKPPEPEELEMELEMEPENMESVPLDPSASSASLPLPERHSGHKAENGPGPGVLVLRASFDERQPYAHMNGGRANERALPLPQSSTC

B1: humanized EM164 antibody version 1.1 (antibody, V domains shown)
VH: QVQLVQSGAEVVKPGASVKLSCKASGYTFTSYWMHWVKQRPGQGLEWIGEINPSNGRTNYNQKFQGKATLTVDKSSSTAYMQLSSLTSEDSAVYYFARGRPDYYGSSKWYFDVWGQGTTVTVS
VL: DVLMTQTPLSLPVSLGDPASISCRSSQSIVHSNVNTYLEWYLQKPGQSPKLLIYKVSNRFSGVPDRFSGSGAGTDFTLRISRVEAEDLGIYYCFQGSHVPPTFGGGTKLEIKR
notes: Expressed transiently in 293T cells; also called huEM164 V1.1; v1.1
As to B1, in experiment [1], the binding result is reported as “binds”.

B2: humanized EM164 antibody version 1.0 (antibody, V domains shown)
VH: QVQLVQSGAEVVKPGASVKLSCKASGYTFTSYWMHWVKQRPGQGLEWIGEINPSNGRTNYNQKFQGKATLTVDKSSSTAYMQLSSLTSEDSAVYYFARGRPDYYGSSKWYFDVWGQGTTVTVS
VL: DVVMTQTPLSLPVSLGDPASISCRSSQSIVHSNVNTYLEWYLQKPGQSPRLLIYKVSNRFSGVPDRFSGSGAGTDFTLRISRVEAEDLGIYYCFQGSHVPPTFGGGTKLEIKR
notes: Expressed transiently in 293T cells; also called huEM164 V1.0; huEM164 v1.0
Regarding B2, the binding result in experiment [2] is on record as “binds”.

B3: humanized EM164 antibody version 1.2 (antibody, V domains shown)
VH: QVQLVQSGAEVVKPGASVKLSCKASGYTFTSYWMHWVKQRPGQGLEWIGEINPSNGRTNYNQKFQGKATLTVDKSSSTAYMQLSSLTSEDSAVYYFARGRPDYYGSSKWYFDVWGQGTTVTVS
VL: DVLMTQTPLSLPVSLGDPASISCRSSQSIVHSNVNTYLEWYLQKPGQSPRLLIYKVSNRFSGVPDRFSGSGAGTDFTLRISRVEAEDLGIYYCFQGSHVPPTFGGGTKLEIKR
notes: Expressed transiently in 293T cells; also called huEM164 V1.2; v1.2
Consider B3, for which, in experiment [1], the binding result is on record as “binds”.

B4: murine anti-IGF-I receptor antibody EM164 (antibody, V domains shown)
VH: QVQLQQSGAELVKPGASVKLSCKASGYTFTSYWMHWVKQRPGQGLEWIGEINPSNGRTNYNEKFKRKATLTVDKSSSTAYMQLSSLTSEDSAVYYFARGRPDYYGSSKWYFDVWGAGTTVTVS
VL: DVLMTQTPLSLPVSLGDQASISCRSSQSIVHSNVNTYLEWYLQKPGQSPKLLIYKVSNRFSGVPDRFSGSGSGTDFTLRISRVEAEDLGIYYCFQGSHVPPTFGGGTKLEIKR
notes: also called EM164 antibody; muEM164
For B4, the figures for the binding result in experiment [3] and in experiment [4] were “no binding” and “no binding (tested: 50-100 nM)”, respectively.
